T1: PACAP38 (UniProt P18509 132-169, biotinylated in the ELISAs)
T1 peptide (looked up): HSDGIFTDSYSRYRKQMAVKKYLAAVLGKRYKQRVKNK

T2: rat CGRP (rat, UniProt P01256 83-119)
T2 peptide (looked up): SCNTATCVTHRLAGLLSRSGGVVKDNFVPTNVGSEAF

T3: human CGRP (human, UniProt P06881 83-119)
T3 peptide (looked up): T2 peptide (looked up) with S1A, N3D, D25N, E35K

B1: P96H1L1 (antibody, human IgG1, kappa, V domains shown)
VH: EVQLVQSGAEVKKPGATVKISCKASGFNIKDYYMHWVQQAPGKGLEWMGWIDPENDNTLYDPKFQDRVTITTDTSTNTAYMELSSLRSEDTAVYYCVFGVMTTVEGDFDYWGQGTTVTVSS
VL: ETVVTQEPSLTVSPGGTVTLTCRSSSGTVTTSNYANWVQQKPGQAFRGLIGGTNNRAPGAPARFSGSLLGGKAALTLSGVQPEDEAEYYCALWYSNHWVFGGGTKLTVLR
B2: P96#-CHI (antibody, human IgG1, kappa, V domains shown)
VH: EVQLQQSGADLVRPGALVKLSCKASGFNIKDYYMHWVKQRPEQGLEWIGWIDPENGNTLYDPKFQDKASITTDTSSNTAYLQLSSLTSEDTAVYYCVFGVMTTVEGDFDYWGQGTALTVSS
VL: QAVVTQESALTTSPGETVTLTCRSSSGTVTTSNYANWVQEKPDHLFTGLIGGTNNRAPGAPARFSGSLIGDKAALTITGAQTEDEAIYFCALWYSNHWVFGGGTKLTVLR
notes: chimeric: murine variable regions fused to human constant regions; also called P96#-CH1
B3: C21#-CHI (antibody, human IgG1, kappa, V domains shown)
VH: EVQLQQSGPELVKPGASVRISCKASGYTFTDYYMNWVRQSHRKSLEWIGDINPNNGGTNYNQKFKGKATLTVDKSSSTAYMELRSLTSEDSAVYYCASIIIVPNYFDYWGQGTTLTVSS
VL: DIVMTQSQKFMSTSVGDRVSVTCKASQNVDTNVAWFQQRPGQSPKALIYSASYRYSGVPDRFTGSGSGTDFTLTISNVQSEDLADYFCQQYNNYPYTFGGGTKLEIER
notes: chimeric: murine variable regions fused to human constant regions; also called C21#-CH1
B4: C28H2L1 (antibody, human IgG1, kappa, V domains shown)
VH: EVQLVQSGAEVKKPGASVKVSCKASGYTFTDYYMNWVRQAPGQRLEWIGDINPNNVVTTYNQKFKGRATLTVDKSASTAYMELSSLRSEDTAVYYCASIIIVPDYFDYWGQGTTVTVSS
VL: DIQMTQSPSSVSASVGDRVTITCKASQNVGSNVAWYQQKPGKSPKALIYSASYRYSGVPSRFSGSGSGTDFTLTISSLQPEDFATYYCQQYNSYPYTFGGGTKVEIKR
B5: C9H8L1 (antibody, human IgG1, kappa, V domains shown)
VH: B4 VH with D50V, N54Y, N55T, V56G, V57R, Q62R, I99L, I100L, V102R, D104H
VL: B4 VL with V11L, S31T, F83V, Y87H, S93F, G100Q, V104L
B6: C9#-CHI (antibody, human IgG1, kappa, V domains shown)
VH: EVQLQQSGPVLVKPGASVKMSCKASGYTFTDYYMNWVKQSLGKSLEWIGVINPYNGRTTYNRKFKGKATLTVDKSSSTAYMELNSLTSEDSAVYYCASLLIRPHYFDYWGQGTTLTVSS
VL: DIVMTQSQKFMATSVGDRVSVTCKASQNVGTNVAWYQQKPGQSPKALIYSASYRYSVVPDRFTGSGSGTDFTLTIRNVQSEDLAEYHCQQYNFYPYTFGAGTKLELKR
notes: chimeric: murine variable regions fused to human constant regions; also called C9#-CH1
B7: C28#-CHI (antibody, human IgG1, kappa, V domains shown)
VH: B3 VH with R19K, K23E, R38K, R42G, G57V, N59T, N104D
VL: B3 VL with Q6H, D30G, T31S, F36Y, Q38E, R39K, D85E, N93S, E107K
notes: chimeric: murine variable regions fused to human constant regions; also called C28#-CH1
B8: C1H3L1 (antibody, human IgG1, kappa, V domains shown)
VH: EVQLVQSGAEVKKPGSSVKVSCKASGYTFSTSWMNWVRQAPGQGLEWMGQIYPGDGYTNYNVKFRGRVTITADKSTSTAYMELSSLRSEDTAVYYCAGDYEALWGQGTTVTVSS
VL: DIVMTQTPLSLPVTPGEPASISCRSSQSLVHSNGNTYFHWYLQKPGQSPQLLIYEVSNRFSGVPDRFSGSGSGTDFTLKISRVEAEDVGVYYCSQSTHVPFTFGQGTKLEIKR
B9: HJ-3 (bispecific antibody)
chain 1: not shown
chain 2: DIQMTQSPSSVSASVGDRVTITCRASQDIANYLSWYQQKPGKSPKLLIYGTSNLEVGVPSRFSGSRSGTDFTLTISSLQPEDFATYYCLQDKEFPRTFGGGTKVEIKGGGGSSGAPRFLTRPLAFVVSVGKDATLSSQIVGNPTPQVSWEKDKQPVTAGARFRLAQDGDLYRLKILDLQLSDSGQYVSRARNAIGEAFACLGLQVDAEA
chain 3: EVQLVQSGAEVKKPGSSVKVSCKASGYTFSNYLIEWVRQAPGQGLEWIGVIDPGVGDTNYNENFKGRATLTADKSTSTAYIELSSLRSEDTAVYYCAREDNTGTAFDYWGQGTTVTVSSASTKGPSVFPLAPSSKSTSGGTAALGCLVKDYFPEPVTVSWNSGALTSGVHTFPAVLQSSGLYSLSSVVTVPSSSLGTQTYICNVNHKPSNTKVDKKVEPKSCDKTHTCPPCPAPEAAGGPSVFLFPPKPKDTLMISRTPEVTCVVVDVSHEDPEVKFNWYVDGVEVHNAKTKPREEQYNSTYRVVSVLTVLHQDWLNGKEYKCKVSNKALPAPIEKTISKAKGQPREPQVCTLPPSREEMTKNQVSLSCAVKGFYPSDIAVEWESNGQPENNYKTTPPVLDSDGSFFLVSKLTVDKSRWQQGNVFSCSVMHEALHNHYTQKSLSLSPGKDYKDDDDK
chain 4: SIVMTQTPLSLSVTPGQPASISCKASQSVSSDVTWYLQKPGQSPQLLIYYVSEHYTGVPDRFSGSGYGTDFTLKISRVEAEDVGVYYCQQHHRFPLTFGQGTKLEIKRTVAAPSVFIFPPSDEQLKSGTASVVCLLNNFYPREAKVQWKVDNALQSGNSQESVTEQDSKDSTYSLSSTLTLSKADYEKHKVYACEVTHQGLSSPVTKSFNRGEC
B10: HJ-7 (bispecific antibody)
chain 1: not shown
chain 2: B9 chain 2 with L123K, F125S, S137C, T144F, A160V, S188C, I194H
chain 3: EVQLVQSGAEVKKPGSSVKVSCKASGYTFSNYLIEWVRQAPGQGLEWIGVIDPGVGDTNYNENFKGRATLTADKSTSTAYIELSSLRSEDTAVYYCAREDNTGTAFDYWGQGTTVTVSSASTKGPSVFPLAPSSKSTSGGTAALGCLVKDYFPEPVTVSWNSGALTSGVHTFPAVLQSSGLYSLSSVVTVPSSSLGTQTYICNVNHKPSNTKVDKKVEPKSCDKTHTCPPCPAPEAAGGPSVFLFPPKPKDTLMISRTPEVTCVVVDVSHEDPEVKFNWYVDGVEVHNAKTKPREEQYNSTYRVVSVLTVLHQDWLNGKEYKCKVSNKALPAPIEKTISKAKGQPREPQVCTLPPSREEMTKNQVSLSCAVKGFYPSDIAVEWESNGQPENNYKTTPPVLDSDGSFFLVSKLTVDKSRWQQGNVFSCSVMHEALHNHYTQKSLSLSPGK
chain 4: B9 chain 4
B11: HJ-8 (bispecific antibody)
chain 1: not shown
chain 2: B9 chain 2 with G108R, G109T, G110V, G111A, L123K, F125S, T144F, A160V, I194H
chain 3: B10 chain 3
chain 4: B9 chain 4
B12: HJ-5 (bispecific antibody)
chain 1: not shown
chain 2: B9 chain 2 with L123K, F125S, T144F, A160V, I194H
chain 3: B10 chain 3
chain 4: B9 chain 4
B13: HJ-6 (bispecific antibody)
chain 1: not shown
chain 2: B9 chain 2 with R121C, L123K, F125S, T144F, A160V, I194H
chain 3: B10 chain 3
chain 4: B9 chain 4
B14: HJ-10 (bispecific antibody)
chain 1: not shown
chain 2: DIQMTQSPSSVSASVGDRVTITCRASQDIANYLSWYQQKPGKSPKLLIYGTSNLEVGVPSRFSGSRSGTDFTLTISSLQPEDFATYYCLQDKEFPRTFGGGTKVEIKRTVASSGAPRFLTRPKASVVSVGKDATLSCQIVGNPFPQVSWEKDKQPVTAGVRFRLAQDGDLYRLKILDLQLSDSGQYVCRARNAHGEAFACLGLQVDAEA
chain 3: B10 chain 3
chain 4: B9 chain 4
B15: HJ-11 (bispecific antibody)
chain 1: not shown
chain 2: B14 chain 2 with A115C
chain 3: B10 chain 3
chain 4: B9 chain 4
B16: HJ-9 (bispecific antibody)
chain 1: not shown
chain 2: B14 chain 2 with R121C, C137S, C188S
chain 3: B10 chain 3
chain 4: B9 chain 4

Where a chain is given by its changes, count along the chain named.

The target of the first assay is T1, PACAP38. Briefly: competition ELISA, biotinylated PACAP38 to coated VPAC2-Fc. The protocol: (§1) The plates were incubated for 1 h and washed, and a horseradish peroxidase-labeled streptavidin secondary antibody was then added. After incubation, color development was performed.
On the technique in general: ELISA stands for enzyme-linked immunosorbent assay.
With B1, the IC50 stood at 0.61 nM.

B2 yielded an IC50 of 0.68 nM.

In another assay the target is CGRP. Nature of the assay: cell-based or functional assay.
On to B3, for which the “IC50, inhibition of cAMP production in SK-N-MC cells” value (“IC50, inhibition … in SK-N-MC cells” for short) was found to be 1.28 nM.

For B4, the “IC50, inhibition … in SK-N-MC cells” value is 2.55 nM.

Take B5: the “IC50, inhibition … in SK-N-MC cells” value came out at 12.2 nM.

For the molecule B6, the “IC50, inhibition … in SK-N-MC cells” value was found to be 21 nM.

As for B7, the “IC50, inhibition … in SK-N-MC cells” value came to 1.21 nM.

As for B8, the “IC50, inhibition … in SK-N-MC cells” value was determined as 9.77 nM.

A further assay concerns the target hTSLP (human, UniProt Q969D9 29-159). Nature of the assay: method of Test Example 4 of WO2021139758.
As to B9, the concentration giving a half-maximal response (EC50) worked out at 3.23 nM.

B10 registered a half-maximal effective concentration (EC50) of 2.18 nM.

Molecule B11 yielded a 50% effective concentration (EC50) of 3.33 nM.

With B12, a half-maximal effect (EC50) was put at 2.64 nM.

For B13, a half-maximal effect (EC50) was put at 2.88 nM.

Turning to B14, the response was half-maximal at 3.17 nM (EC50).

With B15, the concentration for a half-maximal effect (EC50) came out at 3 nM.

In the case of B16, a half-maximal effect (EC50) was put at 3.18 nM. This EC50 and that of the molecule before are within 1.5-fold of each other.

The target of another assay is hIL5 (human, UniProt P05113 20-134). Briefly: method of Test Example 4 of WO2021139758.
B9 registered an EC50 of 17.4 nM.

In the case of B10, the 50% effective concentration (EC50) was 17.7 nM.

B11 yielded an EC50 of 18.7 nM. This EC50 and that of the molecule before are within 1.5-fold of each other.

Consider B12, for which it took 16 nM to reach a half-maximal effect (EC50). This EC50 and that of the molecule before are within 1.5-fold of each other.

For B13, the EC50 is 37 nM.

As for B14, the EC50 is 20.8 nM.

The molecule B15 yielded a 50% effective concentration (EC50) of 9.46 nM.

On to B16, for which the 50% effective concentration (EC50) is 10.9 nM.

Another assay concerns the target T1, PACAP38. Briefly: competition ELISA, biotinylated PACAP38 to coated VPAC1-Fc. The protocol:
as §1
As to B1, the 50% inhibitory concentration (IC50) came out at 0.53 nM.

B2 registered an IC50 of 0.53 nM.

The next assay deals with T2, rat CGRP. Briefly: ELISA, coated CGRP.
On to B3, for which the EC50 came out at 10.1 nM.

As to B4, a half-maximal response (EC50) required 4.04 nM.

As to B5, the concentration giving a half-maximal response (EC50) was 2.8 nM.

B6 came in with a concentration for a half-maximal effect (EC50) of 3.11 nM.

Molecule B7 came in with a half-maximal effective concentration (EC50) of 7.4 nM.

Molecule B8 showed an EC50 of 1.95 nM.

In a further assay the target is T3, human CGRP. Briefly: ELISA, coated CGRP.
Molecule B3 had an EC50 of 3.79 nM. This lies in the single-digit nanomolar range.

Consider B4, for which the concentration giving a half-maximal response (EC50) turned out to be 1.33 nM.

In turn, B5 came in with a concentration for a half-maximal effect (EC50) of 1.03 nM.

For B6, the EC50 is 1.58 nM.

Consider B7, for which the 50% effective concentration (EC50) amounted to 1.29 nM.

B8 returned an EC50 of 1.89 nM.

The target in another assay is T1, PACAP38. Briefly: competition ELISA, biotinylated PACAP38 to coated PAC1-Fc. On the procedure:
as §1
The molecule B1 came in with a 50% inhibitory concentration (IC50) of 0.76 nM.

B2 displayed an IC50 of 0.83 nM.

The target of a further assay is T1, PACAP38. Nature of the assay: cell-based or functional assay.
For the molecule B1, the “IC50, inhibition of cAMP production in SH-SY5Y cells” value stood at 1.79 nM.

Turning to B2, the “IC50, inhibition of cAMP production in SH-SY5Y cells” value is 8.26 nM.

The IC50 is the concentration that inhibits the measured activity by half. A higher IC50 goes with weaker potency in that assay. By EC50 is commonly meant the midpoint of the concentration-response curve. Higher therefore signals a less potent agent.
